Measured values reported in paper PMC4140855, “Production of an Attenuated Phenol-Soluble Modulin Variant Unique to the MRSA Clonal Complex 30 Increases Severity of Bloodstream Infection” (PLoS Pathogens, 2014).
Where no end group is shown, it is not given here. The star is where a group is joined. For = O=C*

Key:
Test in all cases: Ca2+ flux in FPR-transfected HL60 cells, one-site binding model
FPR1 = target: T1, FPR1 (Homo sapiens, UniProt P21462)
T1 chain: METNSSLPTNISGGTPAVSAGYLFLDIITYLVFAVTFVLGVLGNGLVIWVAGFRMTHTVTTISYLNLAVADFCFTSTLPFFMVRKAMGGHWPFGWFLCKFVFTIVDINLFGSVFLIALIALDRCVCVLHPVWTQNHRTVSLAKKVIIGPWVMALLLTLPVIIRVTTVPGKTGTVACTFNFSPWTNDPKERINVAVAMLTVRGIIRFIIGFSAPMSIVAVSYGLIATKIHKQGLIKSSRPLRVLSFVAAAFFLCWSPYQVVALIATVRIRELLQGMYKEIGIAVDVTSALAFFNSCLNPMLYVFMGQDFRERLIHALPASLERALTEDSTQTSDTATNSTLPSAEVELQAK

FPR2 = target: T2, FPR2 (Homo sapiens, UniProt P25090)
T2 chain: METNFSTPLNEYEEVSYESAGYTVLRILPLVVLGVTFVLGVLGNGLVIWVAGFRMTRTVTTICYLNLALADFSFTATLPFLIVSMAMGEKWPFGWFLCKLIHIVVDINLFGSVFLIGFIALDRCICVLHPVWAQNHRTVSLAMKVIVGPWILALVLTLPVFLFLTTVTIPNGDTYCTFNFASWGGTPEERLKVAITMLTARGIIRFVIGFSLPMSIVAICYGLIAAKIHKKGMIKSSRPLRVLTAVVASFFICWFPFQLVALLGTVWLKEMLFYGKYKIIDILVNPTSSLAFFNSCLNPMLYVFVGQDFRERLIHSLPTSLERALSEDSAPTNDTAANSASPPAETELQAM

FPR3 = target: T3, FPR3 (Homo sapiens, UniProt P25089)
T3 chain: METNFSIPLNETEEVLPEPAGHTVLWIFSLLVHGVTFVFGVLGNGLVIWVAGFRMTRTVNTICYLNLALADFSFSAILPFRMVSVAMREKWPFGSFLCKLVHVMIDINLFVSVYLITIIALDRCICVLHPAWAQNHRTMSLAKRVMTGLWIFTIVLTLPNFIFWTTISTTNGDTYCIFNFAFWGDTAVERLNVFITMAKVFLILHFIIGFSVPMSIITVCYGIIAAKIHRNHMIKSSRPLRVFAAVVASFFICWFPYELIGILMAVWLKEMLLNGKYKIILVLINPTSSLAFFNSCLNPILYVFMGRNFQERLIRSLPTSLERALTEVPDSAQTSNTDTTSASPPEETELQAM

B1: PSMα3 (peptide)
chain: For-MEFVAKLFKFFKDLLGKFLGNN
In the case of B1, the Kd (FPR1) is reported as 616 nM, the Kd (FPR2) is reported as 11.9 nM and the Kd (FPR3) is reported as 1380 nM.
